Measured values: the RNAGym collection of RNA variant scans (doi:10.1073/pnas.2313332121)
Fewer inactive variants are shown than the library holds.

B1: TPR 5TU (parent)
chain: GGAUCUUCUCGAUCUAACAAAAAAGACAAAUCUGCCACAAAGCUUGAGAGCAUCUUCGGAUGCAGAGGCGGCAGCCUUCGGUGGCGCGAUAGCGCCAACGUUCUCAACUAUGACACGCAAAACGCGUGCUCCGUUGAAUGGAGUUUAUCAUG

Variants of: B1
Experiment: polymerase ribozyme fitness, log enrichment relative to wild type (log ratio); higher = more active; in vitro selection for triplet polymerase activity
In short: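 One round of in vitro selection, in triplicate, was applied to PCR-built, transcribed mutant libraries of each subunit of a heterodimeric triplet polymerase ribozyme. The steps were annealing with a biotinylated primer, partner subunit and triplets, incubation frozen at −7 °C, gel excision of extended constructs, streptavidin-bead capture and RT-PCR. Fitness is the logarithm, base 2, of genotype enrichment over wild-type enrichment from inverse-variance-weighted replicate averages of Illumina-sequenced inputs and outputs, keeping genotypes with ≥10 input reads and ≥1 read per output.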

Variant | polymerase ribozyme fitness (log ratio)
C85U C108U | -3.1
G62U A106C U146G C149U | -3.91
G58A C87G C116A A147C U151A | ≤ -4.2
A22C G42C C69G A91U | ≤ -4.2
U53A U61C C79G A115U A150U | ≤ -4.2
U9A C10G G48U C63G C85A A137G G141U | ≤ -4.2
G88C G117C A138U G143C | ≤ -4.2
C69A C93G C103A U130A | ≤ -4.2
U55A C93G G143A | -3.93
U56A U145G | -0.287
C93A C116A G126A G141C | ≤ -4.2
U6G A37G U53A G80U U90C C149A | ≤ -4.2
A3U C57U C87U A113C A119G | -3.73
C27A A60U G133A U135C A150U | ≤ -4.2
C57A U78C C95G C99G | -3.07
U6A A37U G124A G126C | -2.83
G81A A120U G128A | -3.29
A47G U61G A142G | -2.82
G83U A120C G141A | -0.169
G48A C69G G84U | -2.41
A21U A30U C38G C85G G112A G124A | ≤ -4.2
A28U G83A C116U U145A | ≤ -4.2
C5A U44C C76A G84A C131U A150U | ≤ -4.2
C54U C87U C105A | -2.09

Variant | polymerase ribozyme fitness (log ratio)
G86U G92C A98G A150U | -2.26
U78G U111G A113U | ≤ -4.2
C38G A66G U77G G83U A107U G128C A137U | ≤ -4.2
A23G C85U | -2.38
A12U C36U G84U | -4.11
C36U U53A A119G | -1.17
A23C C51U G58A C75U C85G G143A U145G | ≤ -4.2
U90C A91U C114U C118U U144G | -4.15
U53A G94C C105A C118U | ≤ -4.2
C38U G94A | -0.383
A89G A97G A113U C118A A120C G141C | ≤ -4.2
U6A A47C G59U G81A C95G G141C | ≤ -4.2
A12U C96U | -0.566
A22C G42U A73U G81C A91U C96U A107G G143C | ≤ -4.2
G58C A73G U101C C125G | -0.932
A37U C114U A115G A120U | -3.83
A12U C43U C63U U90C C105G G140A | ≤ -4.2
C10G C69G G83C | ≤ -4.2
C14G G83C G117U | -2.76
A16C C85G | -4.13
G34C C75A G94A C108G U130A | ≤ -4.2
G92U G133C | -2.1
A20U A26C G84U C103G A106C C108G | ≤ -4.2
A30C A41C C57A G62C G92A C131G | ≤ -4.2

Variant | polymerase ribozyme fitness (log ratio)
A52G | -0.491
G50C G86A C103G G124U C125U G126C | ≤ -4.2
C123A C132G | -3.17
A21U U61A G88A | ≤ -4.2
A52C A106G U139C | ≤ -4.2
A49C C96G | -3.45
C87G U144G | ≤ -4.2
U33G U53G C54U G58A C69U C85A C114U U151A | ≤ -4.2
A26G C35G C57A G81C C87G | ≤ -4.2
C76A A107G C123U A142C | -3.65
U56G A73G U101C A119G U148C | -4.08
U44A G92A C93A G141C | ≤ -4.2
U44G A49U G84A U90G C131U U135G G136A | ≤ -4.2
A49G C54A C116G A121U | -2.34
A30G A49C C93G | ≤ -4.2
U55A C85G C114A A142C U151A | -4.19
U45G A137C | -4.14
A73G A119C | -0.028
C149U A150G | -2.95
C35A | -2.69
C69G C75G | -2.12
U55G C69U U78A A91U C93U G141A | ≤ -4.2
A24G A49C C51A U78G G81C | ≤ -4.2
C87A G126A | -4.04

Variant | polymerase ribozyme fitness (log ratio)
A52C A73G G84U A115G C123G G124C C129A | ≤ -4.2
C5U C96A | 0.48
G11A U56A C99U G143C | -3.7
G50A C51G G83U G84A G141U | ≤ -4.2
G50U C54G | -1.98
A22C C51A C93G A98C C116U U135C | ≤ -4.2
C87U C96U | -1
A19G G94U C96U C116A C125U G133U | ≤ -4.2
A52G C72U G81A G86A C103G A122C | ≤ -4.2
A39C C54G G58C G117U G124U U134C | ≤ -4.2
G83U | -0.478
U33A G83A C95U U151C | ≤ -4.2
U44A A52C | -3.94
A47G G59A | 0.381
U15C A91U | ≤ -4.2
C75U C99U | -2.07
C85G C87G A98U A137G U144C | ≤ -4.2
A52G U55A G59C G86U A142C G143C | ≤ -4.2
A17U A37U G59C G81A A97G C116G | -1.87
G46A C85U A89G C96A A106C U145C U146G | ≤ -4.2
A20C A120G | -0.986
C18U A21U G42A G58C C95U C116U U145C | ≤ -4.2
U31A A40G U44G G141C | -4.06
A39G A52U U56A C75U U78G U104A U144C | ≤ -4.2

Variant | polymerase ribozyme fitness (log ratio)
A12U G71A C75U G84A C85U G117A | ≤ -4.2
G80U C108G | ≤ -4.2
A52U U101G | -2.22
C51A G136A | -0.23
C54U C93U A98G | -1.41
A121G U144C | -0.191
G92A C116U C125U U134C | ≤ -4.2
G46A A47C U53A C57U A107U G117A | ≤ -4.2
G84A G100A A106G A113U G117U C123U A142C | ≤ -4.2
A28U A47C C63G G86C C129A | ≤ -4.2
A3U A40G C54U C95A C149G | ≤ -4.2
A39C G80A A97U G126U U144A | ≤ -4.2
U56A G68C U77A C96G U104G C108U G141C | ≤ -4.2
G50A U56A G88C A106G | ≤ -4.2
C103G G143U | ≤ -4.2
G68A G81A C95A A150C G152A | ≤ -4.2
C8U C93U C99G | ≤ -4.2
A12G U15A U55G C87G C99G C114A A119U | ≤ -4.2
C10G A30U C43G G58A G68A G80A A113C | ≤ -4.2
U6G A47U U61G C69A | ≤ -4.2
G94U U148C | -2.92
G25C G58A C72A G80A C87A C118G | ≤ -4.2
A52G G58U | -0.0148
C96U G124U | -0.372

Variant | polymerase ribozyme fitness (log ratio)
A21C A40C G94A G128U | -3.51
U15C C18A G83A C93U A122U | -1.53
C38A A89G C95G G124A | -2.76
A28C G84U G88C A91G G124U | ≤ -4.2
U55A C79U | -2.74
C14A A37U G50U G94U A106U | ≤ -4.2
G62C G84A C125G G128A | ≤ -4.2
C54G U55A G58U | 0.0801
A17G C32G C76U | ≤ -4.2
C76A G140C | -3.36
C8G C96U | -3.47
A19G C32A A47C G59C C85U A106C G143C | ≤ -4.2
C14U G34U A49C G59C C69A A91C U139A A147C | ≤ -4.2
A16U A20C G83C C96A A107G | ≤ -4.2
A47C U53A C85G U139A | ≤ -4.2
C36U C93A G117U | -3.25
G83U G140U G152U | -3.93
G42U G80A U104C | ≤ -4.2
C54A C75U C93U | -2.29
G67C U101A G141U A150U G152U | ≤ -4.2
C57A C85U G124U U130A | -2.9
U61G C116A | -0.386
C93U C99U C114G | -3.73
A12C C99U C105G | ≤ -4.2

Variant | polymerase ribozyme fitness (log ratio)
A52U G143U U148A | -4.01
A22U G94A | -0.557
A41C A49C C75A C95A | ≤ -4.2
A49C A52U A60G G94A A97G | -3.63
A52C C76G | ≤ -4.2
G81A G86A A97C | -0.925
A39G A47C C72A C103G C116U G128A | ≤ -4.2
C35U C85G C132U | -3.12
A52G G141U U145C G152A | -2.27
U55A C105A | -0.692
A28C A39U G48C G70A G84C C93G G140U | ≤ -4.2
C95U G124C | -0.723
U13A A16G G86U | -2.89
G59C C85G A89U G92A | ≤ -4.2
G68C C93U G140A A147G | ≤ -4.2
A52C G84A U130C | -0.715
A16C U33A C54A C85A A91G C125G G133U | ≤ -4.2
C57U C69A G84U A121C | -2.25
G86A C103U | -1.01
G58A U101G C132G G133C A142C | -3.72
A21C C87U | 0.0419
G83A U134A | -2.04
C8U A22U A37C C57G C99A U148A G152A | ≤ -4.2
